Target: FMC63 protein (Example 2)
Test: ELISA, 500 ng/well coated FMC63, fresh biotinylated fusion protein at 500 or 0.5 ng/well, 4° C.

fold increase in absorbance over wells without fusion protein: > 7 fold
Substance: TNF-α:CD19 ECD fusion protein (ClonedTNFFP)

From patent publication US20240060043A1
